Test results taken from US20170183403A1 (UNIVERSIT T Z RICH, published 2017).

Assays:
Reference peptide no. 14 = target: T1, Reference peptide no. 14; experiment: peptide microarray (RepliTope), 15-mers
T1 construct: hIL-2 15-mer, first library, on microarray; also called peptide 14
T1 peptide: LTFKFYMPKKATELK

Reference peptide no. 58 = target: T2, Reference peptide no. 58; experiment: peptide microarray (RepliTope), 15-mers
T2 construct: second library: peptide 22 with L(92) to Ala; also called peptide 58
T2 peptide: KPLEEVLNAAQSKNF

Reference peptide no. 24 = target: T3, Reference peptide no. 24; experiment: peptide microarray (RepliTope)
T3 construct: hIL-2 15-mer, first library, on microarray; also called peptide 24
T3 peptide: LNLAQSKNFHLRPRD
Description: (§1) Additional incubations are with unrelated antibodies from the same isotype (mouse control IgG2a/lambda and mouse control IgG2a/kappa), and secondary antibodies (anti-mouse IgG (Thermo 84545, label DL650) or anti-mouse IgG (JIR 115-175-072, Label Cy5)) to assess unspecific binding due to the detection antibody. The experiments are performed essentially as described in Maksimov P, et al. 2012, PLoS One 7:e34212. doi:10.1371/journal. pone. 0034212.
(§2) The determination of peptide-antibody binding was performed by RepliTope-analysis where the peptide microarray (triplicate) was incubated with the primary antibody followed by a fluorescently labelled secondary antibody directed against the Fc-part of the primary one. All steps were performed on a TECAN microarray processing station enabling highly reliable and reproducible washing and incubation steps. After performing the incubation steps and subsequent to the final washing steps (to remove the unbound secondary antibodies) the microarrays were dried using a nitrogen stream and scanned in a high resolution microarray scanning system with appropriate wavelength settings. Control incubations were performed with an unrelated antibody having the same isotype to exclude false positive signals.
(§3) The resulting images were analyzed und quantified using spot-recognition software GenePix (Molecular Devices). For each spot, the mean signal intensity was extracted (between 0 and 65535 arbitrary units). For further data evaluation, the MMC2 values were determined. The MMC2 equals the mean value of all three instances on the microarray. Except the coefficient of variation (CV)—standard-deviation divided by the mean value—is larger 0.5, in this case the mean of the two closest values (MC2) is assigned to MMC2.

Reference peptide no. 25 = target: T4, Reference peptide no. 25; experiment: peptide microarray (RepliTope)
T4 construct: hIL-2 15-mer, first library, on microarray; also called peptide 25
T4 peptide: AQSKNFHLRPRDLIS
Description: as §1, §2, §3

Reference peptide no. 26 = target: T5, Reference peptide no. 26; experiment: peptide microarray (RepliTope)
T5 construct: hIL-2 15-mer, first library, on microarray; also called peptide 26
T5 peptide: KNFHLRPRDLISNIN
Description: as §1, §2, §3

Reference peptide no. 22 = target: T6, Reference peptide no. 22; experiment: peptide microarray (RepliTope)
T6 construct: hIL-2 15-mer, first library, on microarray; also called peptide 22
T6 peptide: KPLEEVLNLAQSKNF
Description: as §1, §2, §3

Reference peptide no. 11 = target: T7, Reference peptide no. 11; experiment: peptide microarray (RepliTope)
T7 construct: hIL-2 15-mer, first library, on microarray; also called peptide 11
T7 peptide: YKNPKLTRMLTFKFY
Description: as §1, §2, §3

Reference peptide no. 10 = target: T8, Reference peptide no. 10; experiment: peptide microarray (RepliTope)
T8 construct: hIL-2 15-mer, first library, on microarray; also called peptide 10
T8 peptide: INNYKNPKLTRMLTF
Description: as §1, §2, §3

Reference peptide no. 23 = target: T9, Reference peptide no. 23; experiment: peptide microarray (RepliTope)
T9 construct: hIL-2 15-mer, first library, on microarray; also called peptide 23
T9 peptide: EEVLNLAQSKNFHLR
Description: as §1, §2, §3

Reference peptide no. 12 = target: T10, Reference peptide no. 12; experiment: peptide microarray (RepliTope)
T10 construct: hIL-2 15-mer, first library, on microarray; also called peptide 12
T10 peptide: PKLTRMLTFKFYMPK
Description: as §1, §2, §3

Reference peptide no. 13 = target: T11, Reference peptide no. 13; experiment: peptide microarray (RepliTope)
T11 construct: hIL-2 15-mer, first library, on microarray; also called peptide 13
T11 peptide: TRMLTFKFYMPKKAT
Description: as §1, §2, §3

B1: NARA1 (antibody, mouse IgG2a, kappa, V domains shown)
VH: QVQLQQSGAELVRPGTSVKVSCKASGYAFTNYLIEWVKQRPGQGLEWIGVINPGSGGTNYNEKFKGKATLTADKSSSTAYMQLSSLTSDDSAVYFCARWRGDGYYAYFDVWGAGTTVTVSS
VL: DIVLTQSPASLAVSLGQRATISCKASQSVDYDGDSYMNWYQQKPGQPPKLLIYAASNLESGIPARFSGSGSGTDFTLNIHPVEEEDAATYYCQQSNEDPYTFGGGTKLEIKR
notes: Mouse monoclonal from hybridoma; Isotype controls used were mouse IgG2a; also called anti-IL2 (NARA1) antibody; monoclonal antibody NARA1
binding result (Reference peptide no. 14): no binding
binding result (Reference peptide no. 58): no binding
signal intensity after subtraction of control signal (Reference peptide no. 24): 282 AU
signal intensity after subtraction of control signal (Reference peptide no. 25): 0 AU
signal intensity after subtraction of control signal (Reference peptide no. 26): 0 AU
signal intensity after subtraction of control signal (Reference peptide no. 22): 0 AU
signal intensity after subtraction of control signal (Reference peptide no. 11): 1190 AU
signal intensity after subtraction of control signal (Reference peptide no. 10): 20900 AU
signal intensity after subtraction of control signal (Reference peptide no. 23): 32 AU
signal intensity after subtraction of control signal (Reference peptide no. 12): 1130 AU
signal intensity after subtraction of control signal (Reference peptide no. 13): 224 AU
